According to patent publication US20230303715A1:

Columns and labels:
Assay in all cases: SPR Biacore, Ab on HER2 chip
FcγRIIaR = FcγRIIaR (UniProt P12318)
FcγRIIaH = FcγRIIaH (UniProt P12318)
FcγRI = FcγRI (UniProt P12314)
FcγRIIb = FcγRIIb (UniProt P31994)
Sequence of FcγRIIb (P31994 43-217 limits assumed): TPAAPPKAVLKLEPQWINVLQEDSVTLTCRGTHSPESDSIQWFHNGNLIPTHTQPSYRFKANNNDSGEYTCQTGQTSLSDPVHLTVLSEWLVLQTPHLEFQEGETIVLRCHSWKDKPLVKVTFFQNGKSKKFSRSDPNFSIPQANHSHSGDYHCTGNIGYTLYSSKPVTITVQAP

Sequence of FcγRIIaR (P12318 34-217 H167R limits assumed): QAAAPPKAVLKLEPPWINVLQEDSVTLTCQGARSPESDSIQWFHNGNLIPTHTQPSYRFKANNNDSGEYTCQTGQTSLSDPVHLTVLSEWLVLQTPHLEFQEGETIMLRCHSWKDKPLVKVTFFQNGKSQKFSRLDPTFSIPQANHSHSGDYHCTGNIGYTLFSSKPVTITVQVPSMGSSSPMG
Sequence of FcγRI (P12314 16-292 limits assumed): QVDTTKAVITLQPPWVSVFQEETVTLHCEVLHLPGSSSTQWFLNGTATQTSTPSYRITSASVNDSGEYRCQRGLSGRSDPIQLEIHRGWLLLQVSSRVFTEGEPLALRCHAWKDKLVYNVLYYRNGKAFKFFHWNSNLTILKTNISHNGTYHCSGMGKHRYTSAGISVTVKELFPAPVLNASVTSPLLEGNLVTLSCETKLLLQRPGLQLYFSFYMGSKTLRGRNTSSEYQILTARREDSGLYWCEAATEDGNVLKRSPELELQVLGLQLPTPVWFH
Sequence of FcγRIIaH (P12318 34-217 limits assumed): as the sequence (P12318 34-217 H167R limits assumed) above, with R134H counted along it

B1: one-armed trastuzumab antibody, Scaffold 9, variant v27319 (L242C_I336C/V308I) (antibody, part only; not given: Trastuzumab Fab arm, not shown: another chain or arm of the molecule)
Fc 1: APEFLNGPSVFCFPPKPKDTLMISRTPEVTCVVVDVSQEDPEVKFNWYVDGVEVHNAKTKPREEQYNSTYRVVSVLTILHQDWLNGKEYKCKVSNKGLPKSIEKTCSKAKGQPREPQVYVYPPSRDELTKNQVSLTCLVKGFYPSDIAVEWESNGQPENNYKTTPPVLDSDGSFALVSKLTVDKSRWQQGNVFSCSVMHEALHNHYTQKSLSLSPGK
Fc 2: APELLDGPDVFCFPPKPKDTLMISRTPEVTCVVVDLADEDPEVKFNWYVDGVEVHNAKTKPREEQYNSTYRVVSVLTILHQDWLNGKEYKCKVSNKALPAPIEKTCSKAKGQPREPQVYVLPPSRDELTKNQVSLLCLVKGFYPSDIAVEWESNGQPENNYLTWPPVLDSDGSFFLYSKLTVDKSRWQQGNVFSCSVMHEALHNHYTQKSLSLSPGK
modifications: Engineered intrachain disulphide C242-C336 in each Fc chain.
FcγRIIaR
  Kd: 61.4 nM
FcγRIIaH
  Kd: 575 nM
FcγRI
  Kd: 0.532 nM
FcγRIIb
  Kd: 15.5 nM
